Source: the RNAGym collection of RNA variant scans (doi:10.1073/pnas.2313332121)
Fewer inactive variants are shown than the library holds.

B1: TPR 5TU (parent)
chain: GGAUCUUCUCGAUCUAACAAAAAAGACAAAUCUGCCACAAAGCUUGAGAGCAUCUUCGGAUGCAGAGGCGGCAGCCUUCGGUGGCGCGAUAGCGCCAACGUUCUCAACUAUGACACGCAAAACGCGUGCUCCGUUGAAUGGAGUUUAUCAUG

Variants of: B1
Assay: polymerase ribozyme fitness, log enrichment relative to wild type (log ratio); higher = more active; in vitro selection for triplet polymerase activity
Summary of the method: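 Input and output libraries were sequenced on Illumina after a single in vitro selection round, run in triplicate on PCR-built, transcribed mutant libraries of each subunit of a heterodimeric triplet polymerase ribozyme. Selection annealed libraries to a biotinylated primer, the partner subunit and triplets, incubated them frozen at −7 °C, then gel-excised extended constructs for streptavidin-bead capture and RT-PCR. Genotypes with ≥10 input reads and ≥1 read per output were kept. Fitness is the logarithm, taken in base 2, of genotype enrichment divided by wild-type enrichment, using inverse-variance-weighted replicate averages.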

Variant	polymerase ribozyme fitness (log ratio)
GGAUCUUCUCGAUCUAACAAAAAAGACAAAUCUGCCACAAAGCUGGAGAGCAUCUUCGCAUGCAGAGGCGGCAGCCUUCGGUGGCGCGAUAGCGCCAAAGUUCUCAACUAUGACACGCAAAACGCGUGCUCCGUUGAAUGGAGUUUAUCAGG [U45G G59C C99A U151G]	≤ -4.2
GGAUCUUCUCGAUCUAACAAAAAAGACAAAUCUGCCACAAAGCUGGAGAGCAUCUUCGGAUGCAGAGGCGGCAGCCUUCGGUGUCGCGAUAGCGCCAACGUUCUCAACUAUGUCACGCAAAACGCGUGCUCCGUUGAAUGGAGUUUAUCAUG [U45G G84U A113U]	-4.1
GGAUCUUCUCGAUCUAACAAAAAAGACAAAUCUGCCACAAAGCUGGAGAGCAUCUUCGGAUGCAGAGGCGGCAGCCUUCGGUGGCGCGAUAGAGUCAACGUUCUCAACUAUGACACGCAAAACGCGUGCUCCGUUGAAUGGAGUUUAUCAUG [U45G C93A C95U]	-3.98
GGAUCUUCUCGAUCUAACAAAAAAGACAAAUCUGCCACAAAGCUGGAGAGCAUCUUCGGAUGCAGAGGCGGCAGCCUUCGGUGGCGCGAUAGCGCCAACGUUAUCAACUAUGACACGCAAAACGCGUGCUCCGUUGAAUGGAGUUUAUCUUG [U45G C103A A150U]	≤ -4.2
GGAUCUUCUCGAUCUAACAAAAAAGACAAAUCUGCCACAAAGCUGGAGAGCAUCUUCGGAUGCAGAGGCGGCAGCCUUCGGUGGCGCGAUAUCGCCAACGUUAACAACUAUGACACGCAAAACGCGUGCUCCGUUGAAUGGAGUUUAUCAUG [U45G G92U C103A U104A]	≤ -4.2
GGAUCUUCUCGAUCUAACAAAAAAGACAAAUCUGCCACAAAGCUGGAGAGCAUCUUCGAAUGCAGAGGCGGCAGCCUUCGGUGGCGCGAUAGCGCCAACGUUCUCAACUAUGACACGCAAAACGCGUGCUCCGUUGAAUGGAGUUUAUCAUG [U45G G59A]	-0.523
GGAUCUUCUCGAUCUAACAAAAAAGACAAAUCUGCCACAAAGCUGGAGAGCAUCUUCGGAUGCAGAGGCGGCAGCCUUCGGUGGCGCAAUAGCGCCAACGUUCUCAACUAUGACACGCAAAACGCGUGCUCCGUUGAAUGGAGUUUAUCAUG [U45G G88A]	-4.02
GGAUCUUCUCGAUCUAACAAAAAAGACAAAUCUGCCACAAAGCUGGAGAGCAUCUUCGGAUGCAGAGGCGGCAGCCUUCGGUGGCGCGAUAGAGCCAACGUUCUCAACUAUGUCAUGCAAAACGCGUGCUCCGUUGAAUGGAGUUUAUCAUG [U45G C93A A113U C116U]	≤ -4.2
GGAUCUUCUCGAUCUAACAAAAAAGACAAAUCUGCCACAAAGCUGGAGAGCAUCUUCGGAUGCAGAGGCGGCAGCCUUCCGUGGCGCGAUAGCGCCAACGUUCUCGACUAUGACACGCUAUACCCGUGCUCCUUUGAAUGGAGUUUAUCAUG [U45G G80C A106G A119U A121U G124C G133U]	≤ -4.2
GGAUCUUCUCGAUCUAACAAAAAAGACAAAUCUGCCACAAAGCUGGAUAGCAUCUUCGGUUGCAGAGGCGGAAGCCUUCCGUGGCGCGAUAGCGCAAACGUGCUCAACUAUGACACGCAAAACGCGUGCUCCGUUGAAUGGAGUUUAUCAUG [U45G G48U A60U C72A G80C C96A U102G]	≤ -4.2
GGAUCUUCUCGAUCUAACAAAAAAGACAAAUCUGCCACAAAGCUGGAGAGCAUCUUCGGAUGCAGAGGCGGCAGCCUUCGGUGUCGCGAUAGCGCCAACGUUCUCAACUAUGACACGCAAAACGCGUGCUCCGUUGAAUGGAGUUUAUCAUG [U45G G84U]	-1.97
GGAUCUUCUCGAUCUAACAAAAAAGACAAAUCUGCCACAAAGCUGGAGAGCAUCUUCGGAUGCAGAGGCGGCAGCCUUCGGUGGCGCGAUAGCGCCAACGUUCUCAACUAUGAUACGCAAAACGCGUGCUCCGUUGAAUGGAGUUUAUCAUG [U45G C114U]	-2.91
GGAUCUUCUCGAUCUAACAAAAAAGACAAAUCUGCCACAAAGCUGGAGAGCAUCUUCGGAUGCAGAGUCGGCAGCCUUCGGUGGCGCGAUAGCGCCAACGUUCUCAACUAUGACACGCAAAACGCGUGCUCCGUUGAAUGGAGUUUAUCAUG [U45G G68U]	≤ -4.2
GGAUCUUCUCGAUCUAACAAAAAAGACAAAUCUGCCACAAAGCUGGAGAGCAUCUUCGGAUGCAGAGGCGGCAGCCUUCGGUGGCGCGAUAGCGCCAACGUUCUCAACUAUGACACGCAAAACGCGUUCUCCGUUGAAUGGAGUUUAUCAUG [U45G G128U]	-3.86
GGAUCUUCUCGAUCUAACAAAAAAGACAAAUCUGCCACAAAGCUGGAGAGCAUCUUCGGAUGCAGAGGCGGCAGCCUUCGGUGGCGUGAUAGCGCCAACGUUCUCAACUAUGACACGCAAAACGCGUGCUCCGUUGAAAGGAGUUUAUCAUG [U45G C87U U139A]	≤ -4.2
GGAUCUUCUCGAUCUAACAAAAAAGACAAAUCUGCCACAAAGCUGGAGAGCAUCUUCGGAUGCAGAGGCGGCAGCCUUCGGUGGCUAGAUAGCGCCAACGUUCUCAACUAUGACACGCAAAACGCGUGCUCCGUUGAAUGGAGUUUAUCAUG [U45G G86U C87A]	≤ -4.2
GGAUCUUCUCGAUCUAACAAAAAAGACAAAUCUGCCACAAAGCUGGAAAGCAUCUUCGGAUGCAGAGGCGGCAGCCUUCGGUGGCGCCAUAGCGCCAACGUUCUCGACUAUGACACGCAAAACGCGUGCUCCGUUGAAUGGAGUUUAUCAUG [U45G G48A G88C A106G]	≤ -4.2
GGAUCUUCUCGAUCUAACAAAAAAGACAAAUCUGCCACAAAGCUGGAGAGCAUCUUCGGAUGCAGAGGCAGCAGCCUUCGGUGGCGUGAUAGCGCCAACGUUCUCAACUAUGACACGCAAAACGCGUGCUCCGUUGAAUGGAGGUUAUCAUG [U45G G70A C87U U144G]	≤ -4.2
GGAUCUUCUCGAUCUAACAAAAAAGACAAAUCUGCCACAAAGCUGGAGAGCAUCUUCGGAUGCAGAGGCGGCAGCCUUCGGUAGCGCGAUAGCGCCAACGUUCUCAACUAUGACACGCAAAACGCGUGCUCCGUUGAAUGGAGUUUAUCAUG [U45G G83A]	-0.848
